US20230250157A1

Columns and labels:
Experiment in all cases: ELISA
RaTG13 RBD = target: RaTG13 RBD
Pang17 RBD = target: Pang17 RBD
LyRa3 RBD = target: LyRa3 RBD
SHC014 RBD = target: SHC014 RBD
RmYN02 RBD = target: RmYN02 RBD
BtKY72 RBD = target: BtKY72 RBD
Yun11 RBD = target: Yun11 RBD
Rs4081 RBD = target: Rs4081 RBD
Khosta2 RBD = target: Khosta2 RBD
Rf1 RBD = target: Rf1 RBD
BM4831 RBD = target: BM4831 RBD
RsSTT200 RBD = target: RsSTT200 RBD

Measured: EC50

C144 IgG
not listed: RsSTT200 RBD
> 10 µg/mL: all other assays above

S309 IgG
> 10 µg/mL: RmYN02 RBD | BtKY72 RBD | Yun11 RBD | Rs4081 RBD | Rf1 RBD

C102 IgG
not listed: RaTG13 RBD
> 10 µg/mL: all other assays above
